Experimental findings from US20240228629A1 (CITY OF HOPE, published 2024) are described below.

Experiment [1] addresses T1, EGFRviii on U87-EGFRviii cells (human, UniProt P00533).
T1 construct: the U87-EGFRviii cells also carry whatever EGFR the parent U87 line carries; a shift on these cells cannot be split between the two forms
Put plainly: flow cytometry on U87-EGFRviii cells, 1, 10, 100 ug/ml, anti-Fc Alexa-647 secondary. Here is the method:
The cells were detached by trypsin and incubated with 1, 10, or 100 ug/ml EGFR Ab in 2% BSA in PBS at 4° ° C. After 30 minutes, cells were washed with 2% BSA in PBS. […] The cells were analyzed by flow cytometry after washing.
Background: In flow cytometry, cells or beads pass a laser one at a time.

In experiment [2] the target is T2, D4-IgA1 (extracellular domain IV of human EGFR fused with human IgA1.Fc) (human).
T2 construct: also called EGFR-IgA1; human EGFR-IgA
T2 chain: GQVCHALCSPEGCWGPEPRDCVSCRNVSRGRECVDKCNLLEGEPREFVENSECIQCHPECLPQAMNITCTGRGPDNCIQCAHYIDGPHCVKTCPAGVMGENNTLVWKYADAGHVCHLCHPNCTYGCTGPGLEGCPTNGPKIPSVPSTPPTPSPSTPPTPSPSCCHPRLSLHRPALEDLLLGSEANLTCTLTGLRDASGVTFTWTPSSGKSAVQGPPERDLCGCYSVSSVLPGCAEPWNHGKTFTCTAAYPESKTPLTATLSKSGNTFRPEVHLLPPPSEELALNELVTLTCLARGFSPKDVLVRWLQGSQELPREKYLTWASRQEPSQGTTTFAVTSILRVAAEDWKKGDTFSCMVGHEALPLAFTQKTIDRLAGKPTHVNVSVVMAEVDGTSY
In words: ELISA: EGFR-IgA1 immobilised in microwells, hybridoma culture supernatant, goat anti-mouse IgG.Fc-HRP, OD450.

The target in another experiment is T3, BSA (bovine, UniProt P02769).
T3 construct: also called bovine serum albumin
T3 sequence (P02769 25-607 limits assumed): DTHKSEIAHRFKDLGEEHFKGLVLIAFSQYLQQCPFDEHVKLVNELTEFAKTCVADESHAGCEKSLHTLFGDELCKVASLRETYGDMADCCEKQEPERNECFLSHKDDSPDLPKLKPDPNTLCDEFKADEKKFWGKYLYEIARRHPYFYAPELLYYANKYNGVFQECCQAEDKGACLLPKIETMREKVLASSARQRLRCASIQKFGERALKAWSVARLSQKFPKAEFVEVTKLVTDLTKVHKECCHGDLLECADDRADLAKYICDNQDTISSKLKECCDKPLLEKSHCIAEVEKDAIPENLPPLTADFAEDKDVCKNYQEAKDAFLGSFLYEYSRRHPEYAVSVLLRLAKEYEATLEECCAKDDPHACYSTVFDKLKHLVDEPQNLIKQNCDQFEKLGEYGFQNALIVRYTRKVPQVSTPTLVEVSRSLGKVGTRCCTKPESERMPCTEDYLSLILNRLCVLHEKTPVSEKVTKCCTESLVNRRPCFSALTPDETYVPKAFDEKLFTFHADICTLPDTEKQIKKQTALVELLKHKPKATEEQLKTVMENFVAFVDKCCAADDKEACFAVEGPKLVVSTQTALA
In words: ELISA on coated recombinant proteins, title "Titer of purified mAb"; antibody concentration not given. (In an ELISA, binding on a coated surface is turned into a signal by an enzyme label.)

The target of experiment [3] is T4, EGFR domain IV (human, UniProt P00533 505-645).
T4 construct: Immobilised on a CM5 chip for SPR; also called domain IV of EGFR; EGFR D4
In words: SPR, EGFR domain IV immobilised on CM5 chip, Fab injected. Here is the method: EGFR domain IV was immobilized on a CM5 chip at a density of 500 RU through EDC/NHS coupling. […] In another experiment, EGFR domain IV was again immobilized on a CM5 chip at a density of 500 RU through EDC/NHS coupling. […] The samples were injected at concentrations of 300 nM, 100 nM, 30 nM, 10 nM, and 3 nM (FIGS. 15A-15C). The sensorgram curves were subsequently analyzed.
(In general: SPR reads the build-up and loss of mass on a sensor chip optically.)

For experiment [4], the target named is T4, EGFR domain IV. Put plainly: SPR, EGFR domain IV immobilised on CM5 chip, IgG injected.
For experiment [5], the target named is T4, EGFR domain IV. Put plainly: SPR, EGFR domain IV immobilised on CM5 chip, IgG injected; Table 18 (second kinetic set, apart from Table 17).
Experiment [6] addresses T4, EGFR domain IV. In words: SPR, EGFR domain IV immobilised on CM5 chip, IgG injected. The source holds these as a separate data set.

In general, Kd refers to the equilibrium constant for the complex coming apart. Usually koff stands for the first-order rate constant of dissociation. Low readings indicate slow dissociation, high ones fast dissociation. In general, kon refers to a measure of how fast the partners come together.

B1: EGFRD4-34Ab (antibody, V domains shown)
VH: QIQLVQSGPELKKPGETVKISCKASGYTFTNYGMNWVKQAPGKGLKWMGWINTYTGDPTYADDFKGRFAFSLETSASTAYLQINNLKNEDMATYFCARRISTMITTWFAYWGQGTLVTVSA
VL: DIQMTQSPASLSASVGETVTITCRASENIYSYLAWFQQRQGKSPQLLVYNAKTLTEGVPSRFSGSGSGTQFSLKINSLQPEDFGSYYCQHYQVTPYTFGGGTKLEIK
notes: also called Clone # 34
As to B1, the binding result in experiment [1] is recorded as “binds”.

B2: 5C8 hybridoma clone antibody (mouse, culture supernatant) (antibody, V domains shown)
VH: EVQLQQSGPELVKTGASVKISCKASGYSFTGYYMHWVKQSHGKSLEWIGYINCYNGAINYNQKFKGKATFTVDTSSSTVYMQFNSLTSEDSAVYYCVRAGIHYDYDEAWFAYWGQGTLVTVSA
VL: QAVVTQESALTTSPGETVTLTCRSSTGPVIIRNYANWVQEKPDHLFTGLIGGTNNRAPGVPARFSGSLIGDKAALTITGAQTEDEAIYFCALWYNNHWVFGGGTKLTVL
notes: Mouse antibody from hybridoma supernatant; also called 5C8 clone; Clone 5C8
For B2, the binding result in experiment [2] was “binds”; with BSA it was “no binding”.

B3: EGFRD4-5C8 Fab (Fab, V domains shown)
VH: EVQLQQSGPELVKTGASVKISCKASGYSFTGYYMHWVKQSHGKSLEWIGYINCYNGAINYNQKFKGKATFTVDTSSSTVYMQFNSLTSEDSAVYYCVRAGIHYDYDEAWFAYWGQGTLVTVSA
VL: QAVVTQESALTTSPGETVTLTCRSSTGPVIIRNYANWVQEKPDHLFTGLIGGTNNRAPGVPARFSGSLIGDKAALTITGAQTEDEAIYFCALWYNNHWVFGGGTKLTVL
notes: Fab of clone 5C8
In the case of B3, in the experiment with EGFR domain IV [3], the affinity, expressed as Kd, was 170 nM; the koff came to 0.0305 s⁻¹; the association rate constant (kon) came to 179000 M⁻¹ s⁻¹.

B4: chimeric anti-domain IV EGFR antibody clone 5C8 (EGFRD4-5C8) (antibody, V domains shown)
VH: EVQLQQSGPELVKTGASVKISCKASGYSFTGYYMHWVKQSHGKSLEWIGYINCYNGAINYNQKFKGKATFTVDTSSSTVYMQFNSLTSEDSAVYYCVRAGIHYDYDEAWFAYWGQGTLVTVSA
VL: QAVVTQESALTTSPGETVTLTCRSSTGPVIIRNYANWVQEKPDHLFTGLIGGTNNRAPGVPARFSGSLIGDKAALTITGAQTEDEAIYFCALWYNNHWVFGGGTKLTVL
notes: also called 5C8 IgG; 5C8 mAb
In the experiment with EGFR domain IV [4], B4 returned a Kd of 0.487 nM, a koff of 0.000249 s⁻¹ and a kon of 512000 M⁻¹ s⁻¹. Also, the Kd in the experiment with EGFR domain IV [5] turned out to be 0.214 nM. For the same molecule, in the experiment with EGFR domain IV [6], the koff was 0.00013 s⁻¹ and the kon came to 604000 M⁻¹ s⁻¹.
